In assay [1] the target is human polyclonal IgG (available from Japan Blood Products Organization) (human). Briefly: elution ratio at pH 4.0 relative to PN-621.
The target is the same in assay [2]. Briefly: dynamic binding, 3 mg/mL IgG, 10% breakthrough, 5 min retention.
Assay [3] has the same target. Briefly: immobilised on agarose gel; IgG eluted at pH 4.0 as % of pH 4.0 + pH 2.8 eluates.

B1: PN-621 Variant, five sequences α10 and one sequence β10 (designed binder)
chain: ADNIFNEELQHAFYLILHLPNLTEEQRNAFIQSLRDDPSVVAEILAEARRLNDAQAPRADNIFNEELQHAFYLILHLPNLTEEQRNAFIQSLRDDPSVVAEILAEARRLNDAQAPRADNIFNEELQHAFYLILHLPNLTEEQRNAFIQSLRDDPSVVAEILAEARRLNDAQAPRADNIFNEELQHAFYLILHLPNLTEEQRNAFIQSLRDDPSVVAEILAEARRLNDAQAPRADNIFNEELQHAFYLILHLPNLTEEQRNAFIQSLRDDPSVVAEILAEARRLNDAQAPRADNIFNEELQHAFYLILHLPNLTEEQRNAFIQSLRDDPSKVKKILKEAKKLNKAQAPK
For the molecule B1, the Elution Ratio, relative ratio with respect to PN-621 in assay [1] turned out to be 1.79. The molecule also gave a Binding Amount of IgG in assay [2] of 69 mg/mL gel. Moreover, the Elution Ratio (%) under Weakly Acidic Conditions in assay [3] was 82.9%.

B2: PN-621 Variant, five sequences α8 and one sequence β8 (designed binder)
chain: ADNIFNREVQAAFYHILHLPNLTEEQRNAFIQSLRDDPSVVAEILAEARRLNDAQAPRADNIFNREVQAAFYHILHLPNLTEEQRNAFIQSLRDDPSVVAEILAEARRLNDAQAPRADNIFNREVQAAFYHILHLPNLTEEQRNAFIQSLRDDPSVVAEILAEARRLNDAQAPRADNIFNREVQAAFYHILHLPNLTEEQRNAFIQSLRDDPSVVAEILAEARRLNDAQAPRADNIFNREVQAAFYHILHLPNLTEEQRNAFIQSLRDDPSVVAEILAEARRLNDAQAPRADNIFNREVQAAFYHILHLPNLTEEQRNAFIQSLRDDPSKVKKILKEAKKLNKAQAPK
Regarding B2, the Elution Ratio, relative ratio with respect to PN-621 in assay [1] turned out to be 1.63. In addition, the Binding Amount of IgG in assay [2] amounted to 66 mg/mL gel. In addition, in assay [3], the Elution Ratio (%) under Weakly Acidic Conditions is 75.7%.

The values above are taken from patent US20240043478A1.
